Results from patent US20120178682A1, “GB1 Peptidic Compounds and Methods for Making and Using the Same” (priority 2010, published 2012).

Biological target: D-VEGF, synthetic D-protein form of VEGF-A(8-109) (Homo sapiens (Human)) (UniProt P15692)
Assay: SPR (ProteOn XPR36), D-VEGF immobilized

Sequence of D-VEGF, synthetic D-protein form of VEGF-A(8-109) (Homo sapiens (Human)) (P15692 214-315 limits assumed, form in doubt): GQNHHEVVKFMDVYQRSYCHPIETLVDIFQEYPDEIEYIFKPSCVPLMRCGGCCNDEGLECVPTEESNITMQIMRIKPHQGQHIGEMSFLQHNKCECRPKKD

Kd	koff	kon	Binder
13.4 nM	0.00347 s⁻¹	260000 M⁻¹ s⁻¹	E01 (recombinant, His-tagged) (designed binder) MKIEEHHHHHHHHHHGGSTYKLILNGKTLKGETTTEAVDVYDAFDVFFVYAASNFSDFDDWTYDDATKTFTVTEGGSDK

Biological target: D-VEGF, synthetic D-protein form of VEGF-A(8-109) (Homo sapiens (Human)) (UniProt P15692)
Assay: SPR (ProteOn XPR36), D-VEGF immobilized
Remark: another data set of the same source

Kd	koff	kon	Binder
3.46 nM	0.00117 s⁻¹	338000 M⁻¹ s⁻¹	E01 (recombinant, His-tagged) (designed binder) MKIEEHHHHHHHHHHGGSTYKLILNGKTLKGETTTEAVDVYDAFDVFFVYAASNFSDFDDWTYDDATKTFTVTEGGSDK
4.49 nM	0.00174 s⁻¹	387000 M⁻¹ s⁻¹	E01-D39F/A34S (designed binder) MKIEEHHHHHHHHHHGGSTYKLILNGKTLKGETTTEAVDVYDAFDVFFVYASSNFSFFDDWTYDDATKTFTVTEGGSDK
1.14 nM	0.00082 s⁻¹	719000 M⁻¹ s⁻¹	E01-D39F/V22L (designed binder) MKIEEHHHHHHHHHHGGSTYKLILNGKTLKGETTTEAVDLYDAFDVFFVYAASNFSFFDDWTYDDATKTFTVTEGGSDK
2.99 nM	0.00167 s⁻¹	558000 M⁻¹ s⁻¹	E01-D39F/V31A (designed binder) MKIEEHHHHHHHHHHGGSTYKLILNGKTLKGETTTEAVDVYDAFDVFFAYAASNFSFFDDWTYDDATKTFTVTEGGSDK
2.83 nM	0.00131 s⁻¹	463000 M⁻¹ s⁻¹	E01-D39F/S38G (designed binder) MKIEEHHHHHHHHHHGGSTYKLILNGKTLKGETTTEAVDVYDAFDVFFVYAASNFGFFDDWTYDDATKTFTVTEGGSDK
3.1 nM	0.00158 s⁻¹	511000 M⁻¹ s⁻¹	E01-D39F/D27E (designed binder) MKIEEHHHHHHHHHHGGSTYKLILNGKTLKGETTTEAVDVYDAFEVFFVYAASNFSFFDDWTYDDATKTFTVTEGGSDK
5.35 nM	0.00183 s⁻¹	341000 M⁻¹ s⁻¹	E01-D39F/S35R (designed binder) MKIEEHHHHHHHHHHGGSTYKLILNGKTLKGETTTEAVDVYDAFDVFFVYAARNFSFFDDWTYDDATKTFTVTEGGSDK
4.52 nM	0.00205 s⁻¹	454000 M⁻¹ s⁻¹	E01-D39F/S35E (designed binder) MKIEEHHHHHHHHHHGGSTYKLILNGKTLKGETTTEAVDVYDAFDVFFVYAAENFSFFDDWTYDDATKTFTVTEGGSDK
3.48 nM	0.00132 s⁻¹	380000 M⁻¹ s⁻¹	E01-D39F (designed binder) MKIEEHHHHHHHHHHGGSTYKLILNGKTLKGETTTEAVDVYDAFDVFFVYAASNFSFFDDWTYDDATKTFTVTEGGSDK
2.29 nM	0.00138 s⁻¹	602000 M⁻¹ s⁻¹	E01-D39F/F40I (designed binder) MKIEEHHHHHHHHHHGGSTYKLILNGKTLKGETTTEAVDVYDAFDVFFVYAASNFSFIDDWTYDDATKTFTVTEGGSDK
5.4 nM	0.00193 s⁻¹	358000 M⁻¹ s⁻¹	E01-D39F/S35G (designed binder) MKIEEHHHHHHHHHHGGSTYKLILNGKTLKGETTTEAVDVYDAFDVFFVYAAGNFSFFDDWTYDDATKTFTVTEGGSDK
